Experimental findings from PMC3854871, “Knockdown of Asparagine Synthetase A Renders Trypanosoma brucei Auxotrophic to Asparagine” (PLoS Neglected Tropical Diseases, 2013) are described below.

The target of series [1] is T1, TbAS-A (Trypanosoma brucei, UniProt Q57WT9).
T1 construct: gene Tb07.27M11.260; full ORF in pET28a(+), 6-His-tagged, expressed in E. coli BL21DE3, Ni purified; predicted dimer (homology model)
T1 sequence (Q57WT9 1-351): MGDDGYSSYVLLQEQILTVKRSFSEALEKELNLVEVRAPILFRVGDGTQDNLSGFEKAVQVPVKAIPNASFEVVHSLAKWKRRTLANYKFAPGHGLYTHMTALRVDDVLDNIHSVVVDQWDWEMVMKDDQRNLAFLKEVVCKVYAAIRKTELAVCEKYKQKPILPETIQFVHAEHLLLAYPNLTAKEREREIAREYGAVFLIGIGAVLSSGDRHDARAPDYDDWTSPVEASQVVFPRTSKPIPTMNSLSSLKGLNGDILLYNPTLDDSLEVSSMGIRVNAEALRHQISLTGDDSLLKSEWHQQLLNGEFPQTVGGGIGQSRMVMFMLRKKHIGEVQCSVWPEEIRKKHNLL
As to the kind of experiment: ninhydrin asparagine formation assay, Km app method. Format: biochemical.

Series [2] concerns the target T1, TbAS-A. Description: ninhydrin asparagine formation assay. Format: biochemical.
In series [3] the target is T2, TcAS-A (Trypanosoma cruzi, UniProt Q4CRM4).
T2 construct: gene Tc00.1047053503625.10; full ORF in pET28a(+), 6-His-tagged, expressed in E. coli BL21DE3, Ni purified; predicted dimer (homology model)
T2 sequence (Q4CRM4 1-348): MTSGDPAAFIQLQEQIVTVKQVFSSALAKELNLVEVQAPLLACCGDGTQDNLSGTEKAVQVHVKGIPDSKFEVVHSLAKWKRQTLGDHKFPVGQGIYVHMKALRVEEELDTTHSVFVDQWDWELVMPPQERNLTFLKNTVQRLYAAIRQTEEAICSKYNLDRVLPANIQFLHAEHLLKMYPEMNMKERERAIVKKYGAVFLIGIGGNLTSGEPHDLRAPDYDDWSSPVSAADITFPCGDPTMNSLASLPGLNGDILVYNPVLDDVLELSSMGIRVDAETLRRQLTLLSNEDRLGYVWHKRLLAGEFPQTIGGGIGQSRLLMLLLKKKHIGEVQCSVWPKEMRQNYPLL
Description: ninhydrin asparagine formation assay, Km app method. The class given is biochemical.

The target in series [4] is T2, TcAS-A. As to the kind of experiment: ninhydrin asparagine formation assay. The class given is biochemical.
Substrate in series [5]: N[C@@H](CC(=O)O)C(=O)O
Description: ninhydrin asparagine formation assay. The class given is biochemical, Trypanosoma brucei. To be noted: excess ATP (>10 mM) and ammonia (>50 mM), 8.4 mM Mg2+, 85 mM Tris-HCl, 37 °C. An excerpt:
(§1) ninhydrin asparagine formation assay on TbAS-A

Substrate in series [6]: NC(=O)CC[C@H](N)C(=O)O
Description: ninhydrin asparagine formation assay. Format: biochemical, Trypanosoma brucei. To be noted: excess ATP and aspartate, glutamine as nitrogen donor, 8.4 mM Mg2+, 85 mM Tris-HCl, 37 °C.
From the text: as §1

Substrate in series [7]: Nc1ncnc2c1ncn2[C@@H]1O[C@H](COP(=O)(O)OP(=O)(O)OP(=O)(O)O)[C@@H](O)[C@H]1O
As to the kind of experiment: ninhydrin asparagine formation assay. The class given is biochemical, Trypanosoma brucei. To be noted: excess aspartate (>20 mM) and ammonia (>50 mM), 8.4 mM Mg2+, 85 mM Tris-HCl, 37 °C.
From the text: as §1

Substrate in the series “purified protein”: N
As to the kind of experiment: purified protein. To be noted: excess aspartate (>20 mM) and ATP (>10 mM), ammonia in solution as nitrogen donor, 8.4 mM Mg2+, 85 mM Tris-HCl, 37 °C.

Substrate in series [8]: N[C@@H](CC(=O)O)C(=O)O
As to the kind of experiment: ninhydrin asparagine formation assay. The class given is biochemical, Trypanosoma cruzi. To be noted: excess ATP (>10 mM) and ammonia (>50 mM), 8.4 mM Mg2+, 85 mM Tris-HCl, 37 °C. An excerpt:
(§2) ninhydrin asparagine formation assay on TcAS-A

Substrate in series [9]: NC(=O)CC[C@H](N)C(=O)O
Description: ninhydrin asparagine formation assay. The class given is biochemical, Trypanosoma cruzi. To be noted: excess ATP and aspartate, glutamine as nitrogen donor, 8.4 mM Mg2+, 85 mM Tris-HCl, 37 °C.
From the text: as §2

Substrate in series [10]: Nc1ncnc2c1ncn2[C@@H]1O[C@H](COP(=O)(O)OP(=O)(O)OP(=O)(O)O)[C@@H](O)[C@H]1O
Description: ninhydrin asparagine formation assay. Format: biochemical, Trypanosoma cruzi. To be noted: excess aspartate (>20 mM) and ammonia (>50 mM), 8.4 mM Mg2+, 85 mM Tris-HCl, 37 °C.
From the text: as §2

With `N[C@@H](CSS(=O)(=O)O)C(=O)O` [L-cysteine-S-sulfate], the values for the Ki on TbAS-A [1] and on TcAS-A [3] were 137 µM and 129 µM, respectively. In addition, the IC50 (in general, the concentration at which inhibition is half-maximal) against TbAS-A [2] came to 126 µM; against TcAS-A [4], 100 µM.

B1: TbAS-A (Trypanosoma brucei brucei TREU927) (protein)
chain: MGDDGYSSYVLLQEQILTVKRSFSEALEKELNLVEVRAPILFRVGDGTQDNLSGFEKAVQVPVKAIPNASFEVVHSLAKWKRRTLANYKFAPGHGLYTHMTALRVDDVLDNIHSVVVDQWDWEMVMKDDQRNLAFLKEVVCKVYAAIRKTELAVCEKYKQKPILPETIQFVHAEHLLLAYPNLTAKEREREIAREYGAVFLIGIGAVLSSGDRHDARAPDYDDWTSPVEASQVVFPRTSKPIPTMNSLSSLKGLNGDILLYNPTLDDSLEVSSMGIRVNAEALRHQISLTGDDSLLKSEWHQQLLNGEFPQTVGGGIGQSRMVMFMLRKKHIGEVQCSVWPEEIRKKHNLL
notes: full ORF in pET28a(+), 6-His-tagged, expressed in E. coli BL21DE3, Ni purified; predicted dimer (homology model)
Take B1: the Michaelis constant (Km) (as a rule, the concentration of substrate that gives half-maximal velocity) in series [5] worked out at 5.39 ± 0.31 mM; in [6], 8.20 ± 1.70 mM; in series [7], 1.80 ± 0.32 mM; in “purified protein”, 5.55 ± 0.41 mM. For the same molecule, the kcat (as a rule, the maximal rate divided by the concentration of active sites) in series [5] amounted to 5.31 ± 0.11 s⁻¹; in [6], 5.58 ± 0.48 s⁻¹; in series [7], 6.22 ± 0.38 s⁻¹; in the series “purified protein”, 5.69 s⁻¹. Besides, the kcat/Km (usually the turnover number divided by the Michaelis constant) came out at 985 M⁻¹ s⁻¹ in [5], 680 M⁻¹ s⁻¹ in series [6], 3460 M⁻¹ s⁻¹ in series [7] and 1030 M⁻¹ s⁻¹ in the series “purified protein”.

B2: TcAS-A (Trypanosoma cruzi strain CL Brener) (protein)
chain: MTSGDPAAFIQLQEQIVTVKQVFSSALAKELNLVEVQAPLLACCGDGTQDNLSGTEKAVQVHVKGIPDSKFEVVHSLAKWKRQTLGDHKFPVGQGIYVHMKALRVEEELDTTHSVFVDQWDWELVMPPQERNLTFLKNTVQRLYAAIRQTEEAICSKYNLDRVLPANIQFLHAEHLLKMYPEMNMKERERAIVKKYGAVFLIGIGGNLTSGEPHDLRAPDYDDWSSPVSAADITFPCGDPTMNSLASLPGLNGDILVYNPVLDDVLELSSMGIRVDAETLRRQLTLLSNEDRLGYVWHKRLLAGEFPQTIGGGIGQSRLLMLLLKKKHIGEVQCSVWPKEMRQNYPLL
notes: as for B1
With B2, the Km in “purified protein” amounted to 7.75 ± 1.55 mM; in [8], 6.45 ± 2.05 mM; in series [9], 15.33 ± 3.66 mM; in series [10] it was 0.72 ± 0.01 mM. For the same molecule, the kcat in “purified protein” is 2.45 s⁻¹; in series [8] it was 2.41 ± 0.32 s⁻¹; in series [9] it was 3.38 ± 0.41 s⁻¹; in series [10], 3.45 ± 0.02 s⁻¹. For the same molecule, the specificity constant (kcat/Km) stood at 316 M⁻¹ s⁻¹ in the series “purified protein”, 374 M⁻¹ s⁻¹ in series [8], 220 M⁻¹ s⁻¹ in series [9] and 4790 M⁻¹ s⁻¹ in series [10].
